Degree of inhibition of gut chymotrypsin activity of control insects, 80 nM C1 (FIG. 2F), % Inhibition of chymotrypsin activity and IC50 of inhibition of chymotrypsin activity data for four substances are collected here from patent publication US20090188010A1.

Assay in all cases: cell-based or functional assay
Experiment [1] concerns the target chymotrypsins in unfractionated gut extracts from H. punctigera larvae.
In experiment [2] the target is Bovine chymotrypsin (bovine) (UniProt P00766).
Experiment [3] addresses NaPI-insensitive chymotrypsin from H. punctigera (HpCh5), native enzyme from the larval gut (Helicoverpa punctigera).

Sequence of lima bean trypsin inhibitor (Sigma) (P01056 whole entry): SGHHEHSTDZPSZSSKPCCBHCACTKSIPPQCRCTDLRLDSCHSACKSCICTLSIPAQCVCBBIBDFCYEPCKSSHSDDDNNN
Sequence of soybean Bowman Birk inhibitor (P01055 40-110 limits assumed): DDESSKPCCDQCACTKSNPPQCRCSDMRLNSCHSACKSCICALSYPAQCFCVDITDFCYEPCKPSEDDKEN
Sequence of NaPI-insensitive chymotrypsin from H. punctigera (HpCh5), native enzyme from the larval gut (Helicoverpa punctigera) (chain, as listed by the source limits assumed): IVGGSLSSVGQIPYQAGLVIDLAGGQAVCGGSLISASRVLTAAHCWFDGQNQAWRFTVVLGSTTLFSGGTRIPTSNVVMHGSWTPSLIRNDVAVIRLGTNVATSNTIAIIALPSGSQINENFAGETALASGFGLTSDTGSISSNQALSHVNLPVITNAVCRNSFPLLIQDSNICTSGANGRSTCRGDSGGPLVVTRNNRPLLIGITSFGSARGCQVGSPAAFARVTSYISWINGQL
Sequence of soybean trypsin inhibitor (P01070 25-205): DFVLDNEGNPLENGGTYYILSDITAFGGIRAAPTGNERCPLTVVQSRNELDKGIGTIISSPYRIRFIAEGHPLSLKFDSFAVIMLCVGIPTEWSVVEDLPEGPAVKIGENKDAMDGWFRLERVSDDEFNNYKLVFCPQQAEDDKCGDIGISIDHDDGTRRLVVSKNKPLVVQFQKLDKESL

In turn, “C1 monomer, chymotrypsin inhibitor from the N. alata proteinase inhibitor precursor, HPLC purified” showed a degree of inhibition of gut chymotrypsin activity of control insects, 80 nM C1 (FIG. 2F) in experiment [1] of 75%.
As for “lima bean trypsin inhibitor (Sigma) (from UniProt P01056 1-83)”, in experiment [2], the % Inhibition of chymotrypsin activity at the maximum concentration tested (5 µM) worked out at 100% and the IC50 of inhibition of chymotrypsin activity is 200 nM. Moreover, in experiment [3], the % Inhibition of chymotrypsin activity at the maximum concentration tested (>20 µM) stood at 89% and the IC50 of inhibition of chymotrypsin activity is 3000 nM.
Regarding “soybean Bowman Birk inhibitor (from UniProt P01055 40-110)”, in experiment [2], the % Inhibition of chymotrypsin activity at the maximum concentration tested (5 µM) came to 100% and the IC50 of inhibition of chymotrypsin activity stood at 60 nM. In experiment [3], this substance came in with a % Inhibition of chymotrypsin activity at the maximum concentration tested (10 µM) of 100% and an IC50 of inhibition of chymotrypsin activity of 240 nM.
In experiment [2], “soybean trypsin inhibitor (from UniProt P01070 25-205)” gave a % Inhibition of chymotrypsin activity at the maximum concentration tested (>20 µM) of 94% and an IC50 of inhibition of chymotrypsin activity of 13000 nM. In experiment [3], this substance came in with a % Inhibition of chymotrypsin activity at the maximum concentration tested (>20 µM) of 82% and an IC50 of inhibition of chymotrypsin activity of 33000 nM.
